In patent US20240117018A1:

How the values were obtained:
Experiment in all cases: cell-based or functional assay
[1] = target: HIV-1 Env of pseudovirus 1012_11_TC21_3257 (HIV-1)
[2] = target: HIV-1 Env of pseudovirus 191084 B7-19 (HIV-1)
[3] = target: HIV-1 Env of pseudovirus 191955_A11 (HIV-1)
[4] = target: HIV-1 Env of pseudovirus 249M B10 (HIV-1)
[5] = target: HIV-1 Env of pseudovirus 6244_13_B5_4576 (HIV-1)
[6] = target: HIV-1 Env of pseudovirus 6535.3 (HIV-1)
[7] = target: HIV-1 Env of pseudovirus 7030102001E5(Rev-) (HIV-1)
[8] = target: HIV-1 Env of pseudovirus CAP45.2.00.G3 (HIV-1)
[9] = target: HIV-1 Env of pseudovirus CNE19 (HIV-1)
[10] = target: HIV-1 Env of pseudovirus CNE53 (HIV-1)
[11] = target: HIV-1 Env of pseudovirus CNE58 (HIV-1)
[12] = target: HIV-1 Env of pseudovirus Ce0682_E4 (HIV-1)
[13] = target: HIV-1 Env of pseudovirus Ce1086_B2 (HIV-1)
[14] = target: HIV-1 Env of pseudovirus Ce1172_H1 (HIV-1)
[15] = target: HIV-1 Env of pseudovirus Ce2060_G9 (HIV-1)
[16] = target: HIV-1 Env of pseudovirus Ce703010054_2A2 (HIV-1)
[17] = target: HIV-1 Env of pseudovirus HIV-001428-2.42 (HIV-1)
[18] = target: HIV-1 Env of pseudovirus Q23.17 (HIV-1)
[19] = target: HIV-1 Env of pseudovirus Q461.e2 (HIV-1)
[20] = target: HIV-1 Env of pseudovirus RHPA4259.7 (HIV-1)
[21] = target: HIV-1 Env of pseudovirus SC422661.8 (HIV-1)
[22] = target: HIV-1 Env of pseudovirus THRO4156.18 (HIV-1)
[23] = target: HIV-1 Env of pseudovirus TRJO4551.58 (HIV-1)
[24] = target: HIV-1 Env of pseudovirus WEAU_d15_410_787 (HIV-1)
[25] = target: HIV-1 Env of pseudovirus WITO4160.33 (HIV-1)
[26] = target: HIV-1 Env of pseudovirus ZM214M.PL15 (HIV-1)
[27] = target: HIV-1 Env of pseudovirus ZM233M.PB6 (HIV-1)
[28] = target: HIV-1 Env of pseudovirus ZM53M.PB12 (HIV-1)

Substance: NIH 45-46 (antibody)
- IC50 [1]: 0.01 µg/mL
- IC80 [1]: 0.04 µg/mL
- IC50 [2]: 0.02 µg/mL
- IC80 [2]: 0.07 µg/mL
- IC50 [3]: 0.11 µg/mL
- IC80 [3]: 0.43 µg/mL
- IC50 [4]: 0.04 µg/mL
- IC80 [4]: 0.17 µg/mL
- IC50 [5]: 0.07 µg/mL
- IC80 [5]: 0.26 µg/mL
- IC50 [6]: 0.14 µg/mL
- IC80 [6]: 0.28 µg/mL
- IC50 [7]: 0.14 µg/mL
- IC80 [7]: 0.63 µg/mL
- IC50 [8]: > 50 µg/mL
- IC80 [8]: > 50 µg/mL
- IC50 [9]: 0.07 µg/mL
- IC80 [9]: 0.37 µg/mL
- IC50 [10]: 0.01 µg/mL
- IC80 [10]: 0.04 µg/mL
- IC50 [11]: 0.25 µg/mL
- IC80 [11]: 1.49 µg/mL
- IC50 [12]: 0.07 µg/mL
- IC80 [12]: 0.25 µg/mL
- IC50 [13]: 0.04 µg/mL
- IC80 [13]: 0.28 µg/mL
- IC50 [14]: > 50 µg/mL
- IC80 [14]: > 50 µg/mL
- IC50 [15]: 0.14 µg/mL
- IC80 [15]: 0.48 µg/mL
- IC50 [16]: 0.22 µg/mL
- IC80 [16]: 0.97 µg/mL
- IC50 [17]: < 0.001 µg/mL
- IC80 [17]: 0.01 µg/mL
- IC50 [18]: 0.14 µg/mL
- IC80 [18]: 0.6 µg/mL
- IC50 [19]: 0.06 µg/mL
- IC80 [19]: 0.32 µg/mL
- IC50 [20]: < 0.05 µg/mL
- IC80 [20]: < 0.05 µg/mL
- IC50 [21]: 0.01 µg/mL
- IC80 [21]: 0.07 µg/mL
- IC50 [22]: 1.59 µg/mL
- IC80 [22]: 6.02 µg/mL
- IC50 [23]: 0.01 µg/mL
- IC80 [23]: 0.05 µg/mL
- IC50 [24]: 0.01 µg/mL
- IC80 [24]: 0.03 µg/mL
- IC50 [25]: 0.01 µg/mL
- IC80 [25]: 0.08 µg/mL
- IC50 [26]: 0.05 µg/mL
- IC80 [26]: 0.39 µg/mL
- IC50 [27]: 1.86 µg/mL
- IC80 [27]: 16.5 µg/mL
- IC50 [28]: 0.65 µg/mL
- IC80 [28]: 0.65 µg/mL

Substance: VRC07 (antibody)
- IC50 [1]: 0.014 µg/mL
- IC80 [1]: 0.045 µg/mL
- IC50 [2]: 0.061 µg/mL
- IC80 [2]: 0.209 µg/mL
- IC50 [3]: 0.978 µg/mL
- IC80 [3]: 4.82 µg/mL
- IC50 [4]: 0.052 µg/mL
- IC80 [4]: 0.204 µg/mL
- IC50 [5]: 0.065 µg/mL
- IC80 [5]: 0.23 µg/mL
- IC50 [6]: 0.169 µg/mL
- IC80 [6]: 0.517 µg/mL
- IC50 [7]: 0.205 µg/mL
- IC80 [7]: 0.911 µg/mL
- IC50 [8]: 0.355 µg/mL
- IC80 [8]: 3.09 µg/mL
- IC50 [9]: 0.092 µg/mL
- IC80 [9]: 0.232 µg/mL
- IC50 [10]: 0.031 µg/mL
- IC80 [10]: 0.086 µg/mL
- IC50 [11]: 0.11 µg/mL
- IC80 [11]: 0.298 µg/mL
- IC50 [12]: 0.039 µg/mL
- IC80 [12]: 0.239 µg/mL
- IC50 [13]: 0.128 µg/mL
- IC80 [13]: 0.84 µg/mL
- IC50 [14]: > 50 µg/mL
- IC80 [14]: > 50 µg/mL
- IC50 [15]: 0.085 µg/mL
- IC80 [15]: 0.422 µg/mL
- IC50 [16]: 0.19 µg/mL
- IC80 [16]: 0.912 µg/mL
- IC50 [17]: 0.004 µg/mL
- IC80 [17]: 0.016 µg/mL
- IC50 [18]: 0.081 µg/mL
- IC80 [18]: 0.236 µg/mL
- IC50 [19]: 0.282 µg/mL
- IC80 [19]: 1.02 µg/mL
- IC50 [20]: 0.017 µg/mL
- IC80 [20]: 0.048 µg/mL
- IC50 [21]: 0.054 µg/mL
- IC80 [21]: 0.175 µg/mL
- IC50 [22]: 2.4 µg/mL
- IC80 [22]: 12.2 µg/mL
- IC50 [23]: 0.032 µg/mL
- IC80 [23]: 0.125 µg/mL
- IC50 [24]: 0.034 µg/mL
- IC80 [24]: 0.115 µg/mL
- IC50 [25]: 0.042 µg/mL
- IC80 [25]: 0.193 µg/mL
- IC50 [26]: 0.198 µg/mL
- IC80 [26]: 1.42 µg/mL
- IC50 [27]: 0.152 µg/mL
- IC80 [27]: 0.625 µg/mL
- IC50 [28]: 0.275 µg/mL
- IC80 [28]: 1.29 µg/mL
